Patent US20140080757A1 (ZEALAND PHARMA A S, published 2014)
Like-named read-outs stand apart in the source and are kept apart here. Numbered stars: 1 amine (or outer) side, 2 acyl side, 3 side chain; on linkers, the order of the positions; unused ones are H or OH. Square brackets hold non-standard residues; d marks the D form. Side chains are listed from the residue outwards. * marks the point of attachment. γGlu = O=C(O)[C@H](CCC(=O)[*:2])N[*:1]; Palmitoyl = CCCCCCCCCCCCCCCC(=O)*; Aib = CC(C)(N)C(=O)O

T1: endogenous GLP-1 receptor of a murine insulinoma cell line (murine, UniProt O35659 22-463)
T1 sequence (looked up): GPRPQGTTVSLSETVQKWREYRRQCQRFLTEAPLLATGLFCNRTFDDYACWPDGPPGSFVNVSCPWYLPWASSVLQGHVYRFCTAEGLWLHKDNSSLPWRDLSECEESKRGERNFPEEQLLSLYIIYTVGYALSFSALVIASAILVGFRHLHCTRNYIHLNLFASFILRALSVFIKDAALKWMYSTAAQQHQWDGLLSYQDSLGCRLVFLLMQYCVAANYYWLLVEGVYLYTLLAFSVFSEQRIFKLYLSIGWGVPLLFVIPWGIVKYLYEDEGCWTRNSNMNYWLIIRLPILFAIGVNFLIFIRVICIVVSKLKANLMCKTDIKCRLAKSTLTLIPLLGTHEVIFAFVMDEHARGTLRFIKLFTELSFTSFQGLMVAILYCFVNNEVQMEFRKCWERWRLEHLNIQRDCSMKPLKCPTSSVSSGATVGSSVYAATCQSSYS


Experiments:
Assay in all cases: cell-based or functional assay
[1] = molecular target: T1, endogenous GLP-1 receptor of a murine …
[2] = molecular target: endogenous glucagon receptor of primary rat hepatocytes (rat, UniProt P30082 27-485)
Chain of endogenous glucagon receptor of primary rat hepatocytes (P30082 27-485): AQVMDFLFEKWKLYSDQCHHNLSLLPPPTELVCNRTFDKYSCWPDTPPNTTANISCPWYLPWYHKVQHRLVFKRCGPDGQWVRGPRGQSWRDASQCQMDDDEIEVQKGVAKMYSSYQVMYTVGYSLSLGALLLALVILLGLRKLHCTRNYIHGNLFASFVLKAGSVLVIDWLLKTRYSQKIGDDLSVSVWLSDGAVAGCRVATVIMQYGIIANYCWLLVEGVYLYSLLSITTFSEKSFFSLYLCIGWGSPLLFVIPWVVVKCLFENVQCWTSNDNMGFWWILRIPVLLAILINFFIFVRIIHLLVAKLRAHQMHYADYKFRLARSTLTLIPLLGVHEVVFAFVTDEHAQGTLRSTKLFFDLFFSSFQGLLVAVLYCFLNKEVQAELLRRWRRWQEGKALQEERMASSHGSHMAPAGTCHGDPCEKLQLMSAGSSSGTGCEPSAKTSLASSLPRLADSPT

[3] = molecular target: T2, human glucagon receptor (Glucagon-R) (human, UniProt P47871 26-477)
T2 sequence (P47871 26-477): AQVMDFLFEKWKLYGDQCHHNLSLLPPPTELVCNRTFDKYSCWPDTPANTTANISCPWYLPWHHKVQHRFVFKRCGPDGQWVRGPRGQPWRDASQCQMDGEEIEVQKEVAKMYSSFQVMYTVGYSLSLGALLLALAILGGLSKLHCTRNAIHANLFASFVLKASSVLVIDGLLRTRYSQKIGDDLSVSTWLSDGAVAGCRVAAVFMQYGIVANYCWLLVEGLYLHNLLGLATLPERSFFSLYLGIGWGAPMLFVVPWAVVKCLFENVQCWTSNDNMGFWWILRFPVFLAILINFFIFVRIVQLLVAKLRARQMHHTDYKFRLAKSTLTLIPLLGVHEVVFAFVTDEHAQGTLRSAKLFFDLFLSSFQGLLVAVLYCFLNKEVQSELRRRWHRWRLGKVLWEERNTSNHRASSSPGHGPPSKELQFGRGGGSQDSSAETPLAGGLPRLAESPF

[4] = molecular target: T3, human glucagon-like peptide 1 receptor (GLP-1R) (human, UniProt P43220 24-463)
[5] = molecular target: T2, human glucagon receptor (Glucagon-R); remark: listed apart in the source
[6] = molecular target: T3, human glucagon-like peptide 1 receptor …; remark: listed apart in the source

Binder	EC50 GLP-1R (murine insulinoma cells) [nM] (cAMP) [1]	EC50 GLP-1R Rat hepat. [nM] (inhibition of glycogen synthesis) [2]	EC50 hGCGR CHO-K1 [nM] (cAMP) [3]	EC50 hGLP-1R CHO-K1 [nM] (cAMP) [4]	Ratio GLP-1/Glucagon (EC50 hGLP-1R / EC50 hGCGR) [4]	EC50 hGCGR CHO-K1 [nM] (cAMP) [5]	EC50 hGLP-1R CHO-K1 [nM] (cAMP) [6]	Ratio GLP-1/Glucagon (EC50 hGLP-1R / EC50 hGCGR) [6]
H-H[Aib]QGTFTSDYSKYLDSK([γGlu-Palmitoyl])AAEDFVEWLESA-NH2 (SMILES CCCCCCCCCCCCCCCC(=O)N[C@@H](CCC(=O)NCCCC[C@H](NC(=O)[C@H](CO)NC(=O)[C@H](CC(=O)O)NC(=O)[C@H](CC(C)C)NC(=O)[C@H](Cc1ccc(O)cc1)NC(=O)[C@H](CCCCN)NC(=O)[C@H](CO)NC(=O)[C@H](Cc1ccc(O)cc1)NC(=O)[C@H](CC(=O)O)NC(=O)[C@H](CO)NC(=O)[C@@H](NC(=O)[C@H](Cc1ccccc1)NC(=O)[C@@H](NC(=O)CNC(=O)[C@H](CCC(N)=O)NC(=O)C(C)(C)NC(=O)[C@@H](N)Cc1c[nH]cn1)[C@@H](C)O)[C@@H](C)O)C(=O)N[C@@H](C)C(=O)N[C@@H](C)C(=O)N[C@@H](CCC(=O)O)C(=O)N[C@@H](CC(=O)O)C(=O)N[C@@H](Cc1ccccc1)C(=O)N[C@H](C(=O)N[C@@H](CCC(=O)O)C(=O)N[C@@H](Cc1c[nH]c2ccccc12)C(=O)N[C@@H](CC(C)C)C(=O)N[C@@H](CCC(=O)O)C(=O)N[C@@H](CO)C(=O)N[C@@H](C)C(N)=O)C(C)C)C(=O)O) [Compound 16]	0.33 nM	1.85 nM				1.58 nM	0.2 nM	0.13 ratio
H-HSHGTFTSDYSKYLEEK([γGlu-Palmitoyl])AAHEFIEWLESA-OH (SMILES CCCCCCCCCCCCCCCC(=O)N[C@@H](CCC(=O)NCCCC[C@H](NC(=O)[C@H](CCC(=O)O)NC(=O)[C@H](CCC(=O)O)NC(=O)[C@H](CC(C)C)NC(=O)[C@H](Cc1ccc(O)cc1)NC(=O)[C@H](CCCCN)NC(=O)[C@H](CO)NC(=O)[C@H](Cc1ccc(O)cc1)NC(=O)[C@H](CC(=O)O)NC(=O)[C@H](CO)NC(=O)[C@@H](NC(=O)[C@H](Cc1ccccc1)NC(=O)[C@@H](NC(=O)CNC(=O)[C@H](Cc1c[nH]cn1)NC(=O)[C@H](CO)NC(=O)[C@@H](N)Cc1c[nH]cn1)[C@@H](C)O)[C@@H](C)O)C(=O)N[C@@H](C)C(=O)N[C@@H](C)C(=O)N[C@@H](Cc1c[nH]cn1)C(=O)N[C@@H](CCC(=O)O)C(=O)N[C@@H](Cc1ccccc1)C(=O)N[C@H](C(=O)N[C@@H](CCC(=O)O)C(=O)N[C@@H](Cc1c[nH]c2ccccc12)C(=O)N[C@@H](CC(C)C)C(=O)N[C@@H](CCC(=O)O)C(=O)N[C@@H](CO)C(=O)N[C@@H](C)C(=O)O)[C@@H](C)CC)C(=O)O) [Compound 18]	0.99 nM	0.18 nM	0.14 nM	0.87 nM	6.2 ratio			
H-H[Aib]HGTFTSDYSKYLEEK([γGlu-Palmitoyl])AAHEFVEWLESA-NH2 (SMILES CCCCCCCCCCCCCCCC(=O)N[C@@H](CCC(=O)NCCCC[C@H](NC(=O)[C@H](CCC(=O)O)NC(=O)[C@H](CCC(=O)O)NC(=O)[C@H](CC(C)C)NC(=O)[C@H](Cc1ccc(O)cc1)NC(=O)[C@H](CCCCN)NC(=O)[C@H](CO)NC(=O)[C@H](Cc1ccc(O)cc1)NC(=O)[C@H](CC(=O)O)NC(=O)[C@H](CO)NC(=O)[C@@H](NC(=O)[C@H](Cc1ccccc1)NC(=O)[C@@H](NC(=O)CNC(=O)[C@H](Cc1c[nH]cn1)NC(=O)C(C)(C)NC(=O)[C@@H](N)Cc1c[nH]cn1)[C@@H](C)O)[C@@H](C)O)C(=O)N[C@@H](C)C(=O)N[C@@H](C)C(=O)N[C@@H](Cc1c[nH]cn1)C(=O)N[C@@H](CCC(=O)O)C(=O)N[C@@H](Cc1ccccc1)C(=O)N[C@H](C(=O)N[C@@H](CCC(=O)O)C(=O)N[C@@H](Cc1c[nH]c2ccccc12)C(=O)N[C@@H](CC(C)C)C(=O)N[C@@H](CCC(=O)O)C(=O)N[C@@H](CO)C(=O)N[C@@H](C)C(N)=O)C(C)C)C(=O)O) [Compound 19]	0.33 nM	0.06 nM	0.08 nM	0.27 nM	3.38 ratio			
H-H[Aib]HGTFTSDYSKYLESK([γGlu-Palmitoyl])AAEEFIEWLESA-OH (SMILES CCCCCCCCCCCCCCCC(=O)N[C@@H](CCC(=O)NCCCC[C@H](NC(=O)[C@H](CO)NC(=O)[C@H](CCC(=O)O)NC(=O)[C@H](CC(C)C)NC(=O)[C@H](Cc1ccc(O)cc1)NC(=O)[C@H](CCCCN)NC(=O)[C@H](CO)NC(=O)[C@H](Cc1ccc(O)cc1)NC(=O)[C@H](CC(=O)O)NC(=O)[C@H](CO)NC(=O)[C@@H](NC(=O)[C@H](Cc1ccccc1)NC(=O)[C@@H](NC(=O)CNC(=O)[C@H](Cc1c[nH]cn1)NC(=O)C(C)(C)NC(=O)[C@@H](N)Cc1c[nH]cn1)[C@@H](C)O)[C@@H](C)O)C(=O)N[C@@H](C)C(=O)N[C@@H](C)C(=O)N[C@@H](CCC(=O)O)C(=O)N[C@@H](CCC(=O)O)C(=O)N[C@@H](Cc1ccccc1)C(=O)N[C@H](C(=O)N[C@@H](CCC(=O)O)C(=O)N[C@@H](Cc1c[nH]c2ccccc12)C(=O)N[C@@H](CC(C)C)C(=O)N[C@@H](CCC(=O)O)C(=O)N[C@@H](CO)C(=O)N[C@@H](C)C(=O)O)[C@@H](C)CC)C(=O)O) [Compound 17]	0.89 nM	0.18 nM	0.05 nM	0.23 nM	4.6 ratio			

More lines, now with the values ahead:

EC50 GLP-1R (murine insulinoma cells) [nM] (cAMP) [1]	EC50 GLP-1R Rat hepat. [nM] (inhibition of glycogen synthesis) [2]	EC50 hGCGR CHO-K1 [nM] (cAMP) [3]	EC50 hGLP-1R CHO-K1 [nM] (cAMP) [4]	Ratio GLP-1/Glucagon (EC50 hGLP-1R / EC50 hGCGR) [4]	EC50 hGCGR CHO-K1 [nM] (cAMP) [5]	EC50 hGLP-1R CHO-K1 [nM] (cAMP) [6]	Ratio GLP-1/Glucagon (EC50 hGLP-1R / EC50 hGCGR) [6]	Binder
0.3 nM	3.4 nM	1.32 nM	0.12 nM	0.09 ratio				H-H[Aib]QGTFTSDYSKYLESK([γGlu-Palmitoyl])AAEDFIEWLESA-NH2 (SMILES CCCCCCCCCCCCCCCC(=O)N[C@@H](CCC(=O)NCCCC[C@H](NC(=O)[C@H](CO)NC(=O)[C@H](CCC(=O)O)NC(=O)[C@H](CC(C)C)NC(=O)[C@H](Cc1ccc(O)cc1)NC(=O)[C@H](CCCCN)NC(=O)[C@H](CO)NC(=O)[C@H](Cc1ccc(O)cc1)NC(=O)[C@H](CC(=O)O)NC(=O)[C@H](CO)NC(=O)[C@@H](NC(=O)[C@H](Cc1ccccc1)NC(=O)[C@@H](NC(=O)CNC(=O)[C@H](CCC(N)=O)NC(=O)C(C)(C)NC(=O)[C@@H](N)Cc1c[nH]cn1)[C@@H](C)O)[C@@H](C)O)C(=O)N[C@@H](C)C(=O)N[C@@H](C)C(=O)N[C@@H](CCC(=O)O)C(=O)N[C@@H](CC(=O)O)C(=O)N[C@@H](Cc1ccccc1)C(=O)N[C@H](C(=O)N[C@@H](CCC(=O)O)C(=O)N[C@@H](Cc1c[nH]c2ccccc12)C(=O)N[C@@H](CC(C)C)C(=O)N[C@@H](CCC(=O)O)C(=O)N[C@@H](CO)C(=O)N[C@@H](C)C(N)=O)[C@@H](C)CC)C(=O)O) [Compound 21]
0.27 nM	0.39 nM	0.68 nM	0.23 nM	0.34 ratio				HXQGTFTSDYSKYLEEXAAKDFIEWLESA (Aib at position 2; Lys 17 K(Hexadecanoyl-isoGlu); C-terminal amide (-NH2)) [Compound 20]
0.35 nM	0.28 nM	0.1 nM	0.24 nM	2.4 ratio				H-HSQGTFTSDYSKYLEEK([γGlu-Palmitoyl])AAKDFIEWLESA-NH2 (SMILES CCCCCCCCCCCCCCCC(=O)N[C@@H](CCC(=O)NCCCC[C@H](NC(=O)[C@H](CCC(=O)O)NC(=O)[C@H](CCC(=O)O)NC(=O)[C@H](CC(C)C)NC(=O)[C@H](Cc1ccc(O)cc1)NC(=O)[C@H](CCCCN)NC(=O)[C@H](CO)NC(=O)[C@H](Cc1ccc(O)cc1)NC(=O)[C@H](CC(=O)O)NC(=O)[C@H](CO)NC(=O)[C@@H](NC(=O)[C@H](Cc1ccccc1)NC(=O)[C@@H](NC(=O)CNC(=O)[C@H](CCC(N)=O)NC(=O)[C@H](CO)NC(=O)[C@@H](N)Cc1c[nH]cn1)[C@@H](C)O)[C@@H](C)O)C(=O)N[C@@H](C)C(=O)N[C@@H](C)C(=O)N[C@@H](CCCCN)C(=O)N[C@@H](CC(=O)O)C(=O)N[C@@H](Cc1ccccc1)C(=O)N[C@H](C(=O)N[C@@H](CCC(=O)O)C(=O)N[C@@H](Cc1c[nH]c2ccccc12)C(=O)N[C@@H](CC(C)C)C(=O)N[C@@H](CCC(=O)O)C(=O)N[C@@H](CO)C(=O)N[C@@H](C)C(N)=O)[C@@H](C)CC)C(=O)O) [Compound 22]
0.41 nM	0.15 nM	0.16 nM	0.31 nM	1.94 ratio				HXQGTFTSDYSKYLDEXAAKDFIEWLESA (D-Ser at position 2; Lys 17 K(Hexadecanoyl-isoGlu); C-terminal amide (-NH2)) [Compound 25]
